Assay results reported in the RNAGym collection of RNA variant scans (doi:10.7554/elife.80360).

B1: HDV Ribozyme (parent)
chain: GGCCGGCAUGGUCCCAGCCUCCUCGCUGGCGCCGGCUGGGCAACAUUCCGAGGGGACCGUCCCCUCGGUAAUGGCGAAUGGGACCCA

Variants of: B1
Assay: self-cleavage, relative activity (ratio to wild type); higher = more cleavage; co-transcriptional

Variant	self-cleavage
GGCCGGCAUGGUCCCAGCCUCCUCGCUGGCGCCGGCUGGGCAACAGUCCGAGGGGACCGUCCUCUCGGUAAUGGCGAAUGGGACCCA	0.813
GGCCGGCAUGGUCCCAGCCUCAUCGCUGGCGCCGGGUGGGCAACAUUCCGAGGGGACCGUCCCCUCGGUAAUGGCGAAUGGGACCCA	0.0354
GGCCGGCAUGGUCCCAGCCUCCUCGCUGGCGCCGGCUGGGCAACAUUCCGAGGGGACCGUCCCCUUGGUAAUGUCGAAUGGGACCCA	0.475
GGCCGCCAUGGUCCCAGCCUCCUCUCUGGCGCCGGCUGGGCAACAUUCCGAGGGGACCGUCCCCUCGGUAAUGGCGAAUGGGACCCA	0.166
GGCCGGCAUGGUCCCAGCCUCCUCGCUGGUGCCGGCUGGGCAACAUUCCGAGGGGACCGUCCUCUCGGUAAUGGCGAAUGGGACCCA	0.581
GGCCGACAUGGUCCCAGCCUCCUCGCUGGCGCCGGCUGGGCAACAUUCCGAGGGGACCAUCCCCUCGGUAAUGGCGAAUGGGACCCA	0.776
GGCCGGCAUGGUCCCAGCCUCCUCGCUGGCGCCGGCUGGGCAACUUUCCGAGGGGACCGUCCCCUCGGUAAUGGCGACUGGGACCCA	0.13
GGCCGGCAUGGUCCCAGCCUCCUCGCUGGCGCCGGCUGGGCAGCAUGCCGAGGGGACCGUCCCCUCGGUAAUGGCGAAUGGGACCCA	0.997
GGCCGGCAUGGUCCCAGCCUCCUCGCUGGCGCCCGGUGGGCAACAUUCCGAGGGGACCGUCCCCUCGGUAAUGGCGAAUGGGACCCA	0.095
GGCCGGCAUGGUCCCAGCCACCUCGCUGGCGCCGGCUGGGCAACAUUCCGAGGGGACCGUCCCCUCGGUAAUGGCGAAGGGGACCCA	0.0665
GGCCGGCAUGGUCCCAGCCUCAUCGCUGGCGCCGGCUGGGCAACAUUCCGAGGGGACCGUCCCCUCGGUAAUCGCGAAUGGGACCCA	0.0482
GGCCGGCAUGGUCCAAGCCUCCUCGCUGGCGCCGGCUGGGCAACAUUCCGAGGGGACCGUCCCCUCGGUAAUGGCGAAUGGGCCCCA	0.196
GGCCGGCAUGGUGCCAGCCUCCUCGCUGGCGCCGGCUGGGCAACAUUCCGAAGGGACCGUCCCCUCGGUAAUGGCGAAUGGGACCCA	0.125
GGCCGGCAUGGUCCCAGCCUCCUCGCUGGCGCCGGCUGGGGAACAUUCCGAGGGGACAGUCCCCUCGGUAAUGGCGAAUGGGACCCA	0.895
GGCCGGCAUGGUCCCAGCCUCCUCGCUGGCGCCGGCUGCGCAACAUUCCGAGCGGACCGUCCCCUCGGUAAUGGCGAAUGGGACCCA	0
GGCCGGAAUGGUCCCAGCCUCCUCGCUGGCGCCGGCUGGGCAACAAUCCGAGGGGACCGUCCCCUCGGUAAUGGCGAAUGGGACCCA	0.287
GGCCGGCAUGGUCCCAGCCACCUCGCUGGCGCCGGCUGGGCAACAUUCCGAUGGGACCGUCCCCUCGGUAAUGGCGAAUGGGACCCA	0.0462
GGCCGGCAUGGUCCCAGCGUCCUCGCUGGGGCCGGCUGGGCAACAUUCCGAGGGGACCGUCCCCUCGGUAAUGGCGAAUGGGACCCA	0.0739
GGCCGGCAUGGUCCCAGCCUCCUCGCUGGCGCCGGCUGGGCAACAUUCCGAUGGGACCGUCCCCUCGGUAAUGACGAAUGGGACCCA	0.402
GGCCGGCAUGGUCCCACCCUCCUCGCUGGCGCCGGCUGGGCAACAUUCCGACGGGACCGUCCCCUCGGUAAUGGCGAAUGGGACCCA	0.19
GGCCGGCAUGGUCCCAGCCUCCUGGCUGGCGCCGGCUGGGCAACAUUCCGAGGGGACCGUCCCCCCGGUAAUGGCGAAUGGGACCCA	0.224
GGCCGGCAUGGUCCCAGCCUCCUCGCUGGCGCCUGCUGGGCAACAUUCCGAGGGGACCGUCCCCUCGGUAAUGGCGAAUGGGUCCCA	0.173

Variant	self-cleavage
GGCCGGGAUGGUCCCAGCCUCCUCGCUGGCGCCGGCUGGACAACAUUCCGAGGGGACCGUCCCCUCGGUAAUGGCGAAUGGGACCCA	0.0536
GGCCGGCAUGGUCCCAGCCUCCUCGCUGACUCCGGCUGGGCAACAUUCCGAGGGGACCGUCCCCUCGGUAAUGGCGAAUGGGACCCA	0.0272
GGCCGGCAUGGUCCCAGCCUCCUCGCUGGCGCCGGUUGGGCAACAUUCCCAGGGGACCGUCCCCUCGGUAAUGGCGAAUGGGACCCA	0.612
GGCCGGCAUGGUCCCAGCCUCCUAGCUGGCGCCGGCUGGGCAACAUUCCGAGGGGACCGUCCCCUAGGUAAUGGCGAAUGGGACCCA	0.764
GGCCGGCAUGGUCCCAGCCUCCUCGACGGCGCCGGCUGGGCAACAUUCCGAGGGGACCGUCCCCUCGGUAAUGGCGAAUGGGACCCA	1.04
GGCCGGCAUGGUCCCAGCCUCCUCGCUGGCGCCGGCGGGGCAACCUUCCGAGGGGACCGUCCCCUCGGUAAUGGCGAAUGGGACCCA	0
GGCCGGCAUGGUCCCAGCCUCCUCGCUGGUGCCGGCUGGCCAACAUUCCGAGGGGACCGUCCCCUCGGUAAUGGCGAAUGGGACCCA	0.0256
GGCCGGCAUGGGCCCAUCCUCCUCGCUGGCGCCGGCUGGGCAACAUUCCGAGGGGACCGUCCCCUCGGUAAUGGCGAAUGGGACCCA	0.475
GGCCGGGAUGGUCCCAGCCUCUUCGCUGGCGCCGGCUGGGCAACAUUCCGAGGGGACCGUCCCCUCGGUAAUGGCGAAUGGGACCCA	0.0898
GGCCGGCAUGGUCCCAGCCUUCUCGCUGGCGCCGGCUGGGCAACAUGCCGAGGGGACCGUCCCCUCGGUAAUGGCGAAUGGGACCCA	0.185
GGCCGGCAUGGUCCCAGCCUACUCGCUGGCGCCGGCUGGGCAACAUUCCGAGGGGACCGUCCCCACGGUAAUGGCGAAUGGGACCCA	0.0405
GGCCGGCAUGGUCCCAGCCUCGUCGCUGGCGCCGGCUGGGCAACAUUUCGAGGGGACCGUCCCCUCGGUAAUGGCGAAUGGGACCCA	0.0594
GGCCGGCAUGGUCCCAGCCUCCUCGCUGGCGCCGGCUGGGCAACAUUCCGAGGGGACCGUCCCCUCGGUAACGGCGAAUGGGAACCA	0.166
GGCCGGCAUGGUCCCAGCCUCCUGGCUGGCGCCGGCUGGGCAACAUUCCGAGGGGACCGUCCCCUCGGUAAUGGCGAAUGGGGCCCA	0.153
GGCCGGCAUGGUCCCAGCCUCCUCGCUGGCGCCGUCUGGGCAACAUUCCGAGGGGACCGUCCCCCCGGUAAUGGCGAAUGGGACCCA	0.434
GGCCGGCAUGGUCCCAGCCUCCUCGCUGGCGCCGGCUGGGCAACAUUCCGAGGGGACAGUUCCCUCGGUAAUGGCGAAUGGGACCCA	0.972
GGGCGGCAUGGUCCCAGCCUCCUCGCUGGCGCCGCCUGGGCAACAUUCCGAGGGGACCGUCCCCUCGGUAAUGGCGAAUGGGACCCA	1.48
GGCCGGCAUGGUCCCAGCCACCUCGCUGGCGCCGGCUGGGCAACAUGCCGAGGGGACCGUCCCCUCGGUAAUGGCGAAUGGGACCCA	0
GGCCGGCAUGGUCCCAGCCUCCUCGCUGGCGCCGGCUGGGCAACAUUCCGCGGGGACCGUCCCCUCGGUAAAGGCGAAUGGGACCCA	0.609
GGCCGGCAUGGUCCCAGCCUCCUCGCUGGCGCCGGCUGGGCAACAUUCCGAAGGGAUCGUCCCCUCGGUAAUGGCGAAUGGGACCCA	1.06
GGCCGGCAUGGUCCCAGCCUCCUCGCUGGCGCCGGCUGGGCAACAUUCCGAGGGGACCGUCCCCUCGGUAAUGGCGAAUGGGAAUCA	0.639
GGCCGGCAUGGUCCCAGCCUCCUCGCUGGCGCCGGCUGGGCAACAUUCCGAGGGGACCGUCCCCCCGGUAAUGGCGAACGGGACCCA	0.415

Variant	self-cleavage
GGCCAGCAUGGUCCCAGCCUCCUCGCUGGCGCCGGCUGGGCAACAUUCCGAGGGUACCGUCCCCUCGGUAAUGGCGAAUGGGACCCA	0.122
GGCCGGCAUGGUCCCAGCCUCCUCGCUGGCGCCGGCAGGGCAACAUUCCGAGGGGACCGUCCCCUCGGUAAUGGCGAAUGGGACCCA	0.216
GGCCGGCAUGGUCCCAGCCUCCUCGCUGGCGCCGGCCGGGCAACAUUCCGAGGGGACCGUCCCCUCGGUAAUGGCGAAUGGGACCCA	1.03
GGCCGGCAUGGUCCCAGCCUCCUCGCUGGCGCCGGCUAGGCAACAUUCCGAGGGGACCGUCCCCUCGGUAAUGGCGAACGGGACCCA	0.161
GGCCGGCAUGGUCCCAGCCUCCUCGCUGGCGCCGGCUGGGCAACAUUCCGUGGGGACCGUCCCCUCGGUACUGGCGAAUGGGACCCA	0.856
GGCCGGCAUGGUCCCAGCCUCCUCGCUGGCGCAGGCUGGGCAACAUUCCGAGGGGACCGUCGCCUCGGUAAUGGCGAAUGGGACCCA	0.208
GGCCGGCAUGGUCCCAUCCUCCGCGCUGGCGCCGGCUGGGCAACAUUCCGAGGGGACCGUCCCCUCGGUAAUGGCGAAUGGGACCCA	0.0692
GGCCGGCAUGGUCCCAGCCUCCUCGCUGGUGCCGGCUGGGCAACAUUCCGAGGGGACCGUCUCCUCGGUAAUGGCGAAUGGGACCCA	0.562
GGCCGGCACGGUCCCAGCCUCCUCGCUGGAGCCGGCUGGGCAACAUUCCGAGGGGACCGUCCCCUCGGUAAUGGCGAAUGGGACCCA	0.458
GGCCGGCAUGGUCCCAGCCUCCUCGAUGGCGCCGGCUGGGCAACAUUCCGAGGGGACCGUCCCCUCGGUAAUGUCGAAUGGGACCCA	0.519
GGCCGGCAUGGUCCCAGCCUCCUCGCUGGCGCCGGCUGGGCAACAUUCCGAGGGGACCGUCCCCUCGGCAAUGGCGGAUGGGACCCA	0.997
GGCCGGCAUGGUCCCAGCAUCCUCGCUGGCGCCGGCUGGGCAACAUUCCGAGGGGACCGUCCCCACGGUAAUGGCGAAUGGGACCCA	0.273
GGCCGGCAUGGUCCCAGCCUCCUCGCUGGCGCAGGCUGGGCAACAUUCCGAGGGGACCGUCCCCUCGGUACUGGCGAAUGGGACCCA	0.248
GGCCGGCAUGGUCCCAGCCUCCUCGCUGGCGCCGGCUGGGCAACAUUCCGAGGGGACCUUCCCCUCGGUAAUGGCAAAUGGGACCCA	0.925
GGACGGCAUGGUCCCAGCCUGCUCGCUGGCGCCGGCUGGGCAACAUUCCGAGGGGACCGUCCCCUCGGUAAUGGCGAAUGGGACCCA	0.0115
GGCCGGCAUGGUCCCAGCCUCCUCGCUGGCGCCGGCUGGGAAACAUUCGGAGGGGACCGUCCCCUCGGUAAUGGCGAAUGGGACCCA	0.91
GGCCGGCAUGGUCCCAGCCUCCUCGCUGGCGCCGGCUGGGCAACAUUCCGAGGGGACCGUCCCCUCGGGAAUGGCGAAUGGGACCUA	0.723
GGCCGGCAUGGUCCCAGCCUACUCGCUGGCGCCGGCUGGGCAACAUUCCGAGGGGACCGUCCCCUCGGUAAUGGCGAAUGGGAUCCA	0.0489
GGCCGGCAUGGUCCCAGCCUCCUCGCUGGCGCCGGCUGGGCAACAUUCCGAGGGGACAGUCCCCUCGGUAAUGGCGAAUGGGACCCA	1.02
GGCCGGCAUGGUCCCAGCCUCCUCGCUGGCGCCGGCUGGGCAACAUUCCGAGGGGGCCGUCCCCUCGGUAAUGGCGUAUGGGACCCA	0.739
